In patent publication US20260272830A1, “Ocular Hydrogel Compositions” (The University of Birmingham, priority 2018, published 2026):

Experiments:
[1] = hrDecorin release from the fluid gel (ELISA); format: physicochemical; conditions: cumulative release over 4 hours (240 mins), DMEM, 37° C.
Description: Levels of hrDecorin release from the gel were determined cumulatively, by placing 1 ml of the fluid gel containing hrDecorin in a 6 well plate. Then 2 ml of DMEM was placed over the sample and the plates were incubated at 37° C. At each time point, the media was removed for measurement of hrDecorin, and replaced with fresh media. Decorin release was quantified using an ELISA specific for human Decorin (R&D systems, Minneapolis, USA) in accordance with the manufacturer's protocol.

[2] = target: T1, collagen type I (rat tail) (Rattus norvegicus, UniProt P02454+P02466); test: Collagen fibrillogenesis turbidity assay; format: biochemical
T1 construct: collagen type I (rat tail; Corning, UK); purchased Corning, UK; host or cells: rat tail (tissue-derived)
Description: Collagen fibrillogenesis: For the dose response curves, 75 μl of PBS was added to each well of a 96 well plate kept on ice. Varying hrDecorin doses were prepared by adding 400 μg/ml of hrDecorin to the first well and subsequently serial diluting (2-fold dilution) across the plate. Following dilution, a further 150 μl of PBS buffer was added to each well. Then, 75 μl of collagen type I (rat tail; Corning, UK) (800 μg/ml) was added to each well and incubated for 2 hours at 37° C. Subsequent absorbance readings were taken using a 405 nm plate reader. Each assay consisted of duplicate blank controls, and triplicate standard dilutions followed by triplicate sample dilutions. Kinetics of fibril formation were determined using a similar setup as the dose response, without serial dilution; incubating the samples within the plate reader, and taking data points every 2 minutes.

[3] = turbidity at 405 nm, 2 hours at 37° C.

T1 sequence (P02454 152-1207 limits assumed): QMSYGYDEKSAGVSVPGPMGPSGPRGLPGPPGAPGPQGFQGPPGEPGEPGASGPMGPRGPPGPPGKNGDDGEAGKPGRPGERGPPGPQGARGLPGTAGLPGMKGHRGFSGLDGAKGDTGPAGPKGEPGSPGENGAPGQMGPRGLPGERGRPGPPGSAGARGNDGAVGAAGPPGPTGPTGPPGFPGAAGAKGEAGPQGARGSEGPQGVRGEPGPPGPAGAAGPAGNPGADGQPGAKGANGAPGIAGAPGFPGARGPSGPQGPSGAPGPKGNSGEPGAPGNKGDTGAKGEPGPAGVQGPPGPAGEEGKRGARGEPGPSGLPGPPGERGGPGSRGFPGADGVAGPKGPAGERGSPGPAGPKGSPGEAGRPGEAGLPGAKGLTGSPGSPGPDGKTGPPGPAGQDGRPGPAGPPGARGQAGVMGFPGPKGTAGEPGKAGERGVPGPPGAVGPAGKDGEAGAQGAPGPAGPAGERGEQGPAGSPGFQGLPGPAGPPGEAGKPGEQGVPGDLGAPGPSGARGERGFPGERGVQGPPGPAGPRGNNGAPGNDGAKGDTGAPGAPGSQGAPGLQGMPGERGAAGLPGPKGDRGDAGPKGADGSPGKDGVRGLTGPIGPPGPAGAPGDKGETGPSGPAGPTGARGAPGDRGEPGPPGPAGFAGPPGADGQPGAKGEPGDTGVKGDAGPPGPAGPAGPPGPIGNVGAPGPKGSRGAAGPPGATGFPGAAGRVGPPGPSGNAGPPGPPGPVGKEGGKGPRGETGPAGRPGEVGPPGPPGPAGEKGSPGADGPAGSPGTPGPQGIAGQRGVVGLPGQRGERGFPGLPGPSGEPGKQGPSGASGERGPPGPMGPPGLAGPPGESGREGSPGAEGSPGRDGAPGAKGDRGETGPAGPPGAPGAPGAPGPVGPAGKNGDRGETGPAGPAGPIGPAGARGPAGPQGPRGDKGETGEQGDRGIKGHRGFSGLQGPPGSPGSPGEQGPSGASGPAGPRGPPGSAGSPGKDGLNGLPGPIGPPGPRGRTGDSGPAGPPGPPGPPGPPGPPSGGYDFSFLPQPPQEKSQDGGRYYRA
T1 sequence (P02466 86-1125 limits assumed): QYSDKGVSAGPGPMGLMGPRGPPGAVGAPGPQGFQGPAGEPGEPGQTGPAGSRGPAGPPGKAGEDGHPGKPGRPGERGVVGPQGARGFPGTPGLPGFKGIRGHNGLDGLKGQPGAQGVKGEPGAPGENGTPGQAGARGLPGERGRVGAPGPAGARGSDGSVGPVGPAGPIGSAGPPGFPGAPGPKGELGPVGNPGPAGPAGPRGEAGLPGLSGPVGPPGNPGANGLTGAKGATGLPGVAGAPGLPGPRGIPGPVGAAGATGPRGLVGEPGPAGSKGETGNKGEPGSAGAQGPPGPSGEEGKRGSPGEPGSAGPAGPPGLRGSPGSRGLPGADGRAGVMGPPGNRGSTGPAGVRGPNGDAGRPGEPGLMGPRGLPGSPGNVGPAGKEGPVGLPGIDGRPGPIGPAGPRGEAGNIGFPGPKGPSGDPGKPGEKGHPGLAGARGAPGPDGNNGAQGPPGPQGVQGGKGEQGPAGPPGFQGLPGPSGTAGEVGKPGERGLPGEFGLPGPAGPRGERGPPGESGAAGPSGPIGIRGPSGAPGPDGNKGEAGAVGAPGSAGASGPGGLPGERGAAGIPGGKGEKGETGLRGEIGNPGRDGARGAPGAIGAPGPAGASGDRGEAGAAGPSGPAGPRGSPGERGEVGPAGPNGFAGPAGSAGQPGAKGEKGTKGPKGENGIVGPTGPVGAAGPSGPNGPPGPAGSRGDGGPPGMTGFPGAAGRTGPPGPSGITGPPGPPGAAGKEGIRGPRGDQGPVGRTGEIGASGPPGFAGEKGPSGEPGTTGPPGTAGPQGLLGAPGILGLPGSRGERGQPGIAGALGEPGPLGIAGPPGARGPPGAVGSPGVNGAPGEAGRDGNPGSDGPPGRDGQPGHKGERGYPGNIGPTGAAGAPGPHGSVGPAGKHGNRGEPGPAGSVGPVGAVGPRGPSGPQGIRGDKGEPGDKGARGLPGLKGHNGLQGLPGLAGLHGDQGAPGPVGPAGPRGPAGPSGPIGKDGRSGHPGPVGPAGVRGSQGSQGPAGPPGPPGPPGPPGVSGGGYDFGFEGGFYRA

B1: hrDecorin: human recombinant decorin (Galacorin™; Catalent), anti-fibrotic small leucine-rich proteoglycan (protein, UniProt P07585 31-359, looked up)
Decorin: DEASGIGPEVPDDRDFEPSLGPVCPFRCQCHLRVVQCSDLGLDKVPKDLPPDTTLLDLQNNKITEIKDGDFKNLKNLHALILVNNKISKVSPGAFTPLVKLERLYLSKNQLKELPEKMPKTLQELRAHENEITKVRKVTFNGLNQMIVIELGTNPLKSSGIENGAFQGMKKLSYIRIADTNITSIPQGLPPSLTELHLDGNKISRVDAASLKGLNNLAKLGLSFNSISAVDNGSLANTPHLRELHLDNNKLTRVPGGLAEHKYIQVVYLHNNNISVVGSSDFCPPGHNTKKASYSGVSLFSNPVQYWEIQPSTFRCVYVRSAIQLGNYK
- rate of release of hrDecorin from the eye drop system [1]: almost linear over time
- concentration at which minimum turbidity is achieved, above which no further reduction occurs [2, 3]: > 10000 ng/mL
- critical concentration above which hrDecorin inhibits fibrillogenesis [2, 3]: 0.5 μg/ml
- kinetics of fibril formation ([2]; turbidity read every 2 minutes): slowing the onset of fibrillogenesis
